Source: US20090155164A1 (Amgen, published 2009)

How the values were obtained:
[1] = biological target: T1, avidin-c-fms Ig-like 1 domain fusion protein (chicken; human, UniProt P07333 20-126); experiment: FACS, biotin beads loaded with the avidin fusion protein, FITC-labeled antibody; Neg CM value of this antibody 4.22
T1 construct: Joined through an XhoI site; Captured on biotin beads; also called Ig1 construct; Ig-like loop 1 (IPVI-ALLP); not shown: chicken avidin, N-terminal fusion partner from pCEP4-Avidin(N)
T1 sequence (P07333 20-126 limits assumed): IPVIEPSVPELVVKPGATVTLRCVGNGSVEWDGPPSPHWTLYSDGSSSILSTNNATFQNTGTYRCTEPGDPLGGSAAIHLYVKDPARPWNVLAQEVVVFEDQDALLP
Procedure: (§1) The concentration of each c-fms avidin fusion protein was determined using a quantitative FACS based assay. The c-fms avidin fusion proteins were captured on 6.7 μm biotin polystyrene beads (Spherotech, Inc., Libertyville Ill.). 1× conditioned media (20 and 200 μl) were added to 5 μl (˜3.5×10⁵) beads, and incubated for 1 hr at room temperature with rotation. Conditioned media was removed by centrifugation and samples were washed with PBS containing 0.5% BSA (BPBS). The avidin beads were stained with 200 μl of a 0.5 μg/ml solution of a goat FITC-labeled anti-avidin antibody (Vector Labs, Burlingame, Calif.) in BPBS for 45 minutes at room temperature covered by foil. Following incubation, the beads were recollected by centrifugation, washed with BPBS, and resuspended for analysis in 0.5 ml BPBS. The FITC fluorescence was detected using a FACScan (Becton Dickinson Bioscience, Franklin Lakes, N.J.). The signal was converted to protein mass using a standard curve derived with rAvidin. For epitope mapping, biotin beads were loaded with ˜100 ng of c-fms avidin fusion protein per 3.5×10⁵ beads and brought up to volume with growth medium.
(§2) After incubation for 1 hr at room temperature, 3 ml washing buffer (BPBS) was added and the antibody-beads complexes were collected by centrifugation for 5 min at 750×g. The pellet was washed in 3 ml of BPBS. The antibody bound to avidin-bead complexes was detected by FACS (Becton Dickinson) analysis. The mean (X) fluorescent intensity was recorded for each sample.

[2] = biological target: T2, avidin-c-fms Ig-like 1-2 domain fusion protein (chicken; human, UniProt P07333 20-223); experiment: as above
T2 construct: Captured on biotin beads; also called Ig1-2 construct; Ig-like loops 1 and 2 (IPVI-AQIV); not shown: chicken avidin, N-terminal fusion partner from pCEP4-Avidin(N)
T2 sequence (P07333 20-223 limits assumed): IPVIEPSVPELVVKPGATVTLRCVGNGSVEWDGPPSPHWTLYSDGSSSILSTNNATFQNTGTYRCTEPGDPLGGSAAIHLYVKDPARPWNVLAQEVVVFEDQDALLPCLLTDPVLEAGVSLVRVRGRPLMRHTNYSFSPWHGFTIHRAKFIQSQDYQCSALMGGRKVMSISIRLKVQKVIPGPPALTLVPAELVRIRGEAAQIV
Procedure: as §1, §2

[3] = biological target: T3, avidin-c-fms Ig-like 1-4 domain fusion protein (chicken; human, UniProt P07333 20-418); experiment: as above
T3 construct: Captured on biotin beads; also called Ig-like loops 1-4 (IPVI-GTLL); not shown: chicken avidin, N-terminal fusion partner from pCEP4-Avidin(N)
T3 sequence (P07333 20-418 limits assumed): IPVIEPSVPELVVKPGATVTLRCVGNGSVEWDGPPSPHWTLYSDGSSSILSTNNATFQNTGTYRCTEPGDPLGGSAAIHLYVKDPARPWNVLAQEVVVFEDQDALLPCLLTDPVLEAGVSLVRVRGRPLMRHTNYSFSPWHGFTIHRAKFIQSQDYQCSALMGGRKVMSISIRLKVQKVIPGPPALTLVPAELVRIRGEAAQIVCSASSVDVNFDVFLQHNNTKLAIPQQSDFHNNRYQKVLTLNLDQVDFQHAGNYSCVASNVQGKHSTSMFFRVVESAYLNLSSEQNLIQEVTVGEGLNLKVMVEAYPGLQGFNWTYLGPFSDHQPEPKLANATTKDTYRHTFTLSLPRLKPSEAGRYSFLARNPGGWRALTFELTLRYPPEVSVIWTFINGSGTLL
Procedure: as §1, §2

[4] = biological target: T4, avidin-c-fms Ig-like 1-5 domain fusion protein (full extracellular domain) (chicken; human, UniProt P07333 20-512); experiment: as above
T4 construct: Captured on biotin beads; also called c-fms ECD Ig1-5 construct; human c-fms ECD; not shown: chicken avidin, N-terminal fusion partner from pCEP4-Avidin(N)
T4 sequence (P07333 20-512 limits assumed): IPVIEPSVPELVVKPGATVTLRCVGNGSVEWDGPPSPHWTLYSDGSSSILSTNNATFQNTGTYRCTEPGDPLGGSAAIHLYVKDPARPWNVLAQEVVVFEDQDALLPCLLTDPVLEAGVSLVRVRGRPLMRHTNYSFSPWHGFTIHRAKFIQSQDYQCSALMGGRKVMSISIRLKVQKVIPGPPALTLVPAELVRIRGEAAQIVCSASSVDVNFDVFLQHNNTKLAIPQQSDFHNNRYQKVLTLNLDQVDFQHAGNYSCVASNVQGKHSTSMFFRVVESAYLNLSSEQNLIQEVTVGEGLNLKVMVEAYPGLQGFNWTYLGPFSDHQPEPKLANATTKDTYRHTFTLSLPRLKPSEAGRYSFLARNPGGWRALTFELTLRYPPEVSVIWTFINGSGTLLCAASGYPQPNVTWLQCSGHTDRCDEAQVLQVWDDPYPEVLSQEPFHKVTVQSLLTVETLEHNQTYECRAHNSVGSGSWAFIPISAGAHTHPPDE
Procedure: as §1, §2

[5] = biological target: T1, avidin-c-fms Ig-like 1 domain fusion …; experiment: FACS, biotin beads coated with the avidin fusion protein, FITC-1.2 without competitor
[6] = biological target: T1, avidin-c-fms Ig-like 1 domain fusion …; experiment: FACS, biotin beads loaded with the avidin fusion protein, FITC-labeled antibody; Neg CM value of this antibody 4.74
Procedure: as §1, §2

[7] = biological target: T2, avidin-c-fms Ig-like 1-2 domain fusion …; experiment: as above
Procedure: as §1, §2

[8] = biological target: T3, avidin-c-fms Ig-like 1-4 domain fusion …; experiment: as above
Procedure: as §1, §2

[9] = biological target: T4, avidin-c-fms Ig-like 1-5 domain fusion …; experiment: as above
Procedure: as §1, §2

[10] = biological target: T1, avidin-c-fms Ig-like 1 domain fusion …; experiment: FACS, biotin beads coated with the avidin fusion protein, FITC-2.36 without competitor
[11] = biological target: T1, avidin-c-fms Ig-like 1 domain fusion …; experiment: FACS, biotin beads loaded with the avidin fusion protein, FITC-labeled antibody; Neg CM value of this antibody 3.32
Procedure: as §1, §2

[12] = biological target: T2, avidin-c-fms Ig-like 1-2 domain fusion …; experiment: as above
Procedure: as §1, §2

[13] = biological target: T3, avidin-c-fms Ig-like 1-4 domain fusion …; experiment: as above
Procedure: as §1, §2

[14] = biological target: T4, avidin-c-fms Ig-like 1-5 domain fusion …; experiment: as above
Procedure: as §1, §2

B1: anti-c-fms IgG2 clone 1.109 (parent form, PT) (antibody, V domains shown)
VH: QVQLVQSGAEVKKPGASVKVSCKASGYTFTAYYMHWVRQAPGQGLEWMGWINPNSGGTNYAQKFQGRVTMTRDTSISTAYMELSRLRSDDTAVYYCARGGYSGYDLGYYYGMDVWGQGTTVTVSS
VL: DIQMTQSPSSLSASVGDRVTITCQASQNISNFLDWYQQKPGKAPNLLIYDASDLDPGVPSRFSGSGSGTDFTFTISSLQPEDIATYYCQQYVSLPLTFGGGTKVEIKR
modifications: N-linked glycosylation site at Asn-28 in CDR1, reported as likely occupied; N-terminal glutamine cyclized to pyroglutamic acid; C-terminal lysine absent
notes: Recombinant human IgG2 kappa from COS/PKB cells (hybridoma was IgG1)
With B1 as the binder, how does the MFI [1] read?
The MFI was 2.93.

What about the MFI [2] of the same binder?
Its MFI is 232.

And the MFI [3]?
Its MFI is 215.

What about the MFI [4] of the same binder?
Its MFI is 668.

B2: anti-c-fms IgG2 clone 1.2 (parent form, PT) (antibody, V domains shown)
VH: QVQLVQSGAEVKKPGASVKVSCKASGYTFTSYGISWVRQAPGQGLEWMGWISAYNGNTNYAQKLQGRVTMTTDTSTSTAYMELRSLRSDDTAVYYCARESWFGEVFFDYWGQGTLVTVSS
VL: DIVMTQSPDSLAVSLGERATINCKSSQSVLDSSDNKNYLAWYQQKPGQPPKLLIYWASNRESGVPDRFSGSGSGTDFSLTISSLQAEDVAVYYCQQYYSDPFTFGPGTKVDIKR
modifications: N-terminal glutamine cyclized to pyroglutamic acid; C-terminal lysine absent
notes: Recombinant human IgG2 kappa from COS/PKB cells (hybridoma was IgG1); also called 1.2.1; Clone 1.2 PT
Does B2 bind [5]?
Result: no binding (tested: 1 µg/ml)

What about the MFI [6] of the same binder?
Its MFI is 2.89.

And the MFI [7]?
The MFI was 148.

And the MFI [8]?
The MFI was 134.

What about the MFI [9] of the same binder?
Its MFI is 342.

B3: anti-c-fms IgG2 clone 2.360 (parent form, PT) (antibody, V domains shown)
VH: QVQLVQSGAEVKKPGASVKVSCKVSGYTLTELSMHWVRQAPGKGLEWMGGFDPEDGETIYAQKFQGRVTMTEDTSTDTVYMELSSLRSEDTAVYYCATGVMITFGGVIVGHSYYGMDVWGQGTTVTVSS
VL: DIQMTQSPSSLSASVGDRVTITCRASQGINNYLAWYQQKPGKVPQLLIYVASTLQSGVPSRFSGSGSGTDFTLTISSLQPEDVATYYCQKYNSGPFTFGPGTKVDIKR
modifications: N-terminal glutamine cyclized to pyroglutamic acid; C-terminal lysine absent
notes: Recombinant human IgG2 kappa from COS/PKB cells
Does B3 bind [10]?
Result: no binding (tested: 1 µg/ml)

What about the MFI [11] of the same binder?
The MFI was 2.85.

What about the MFI [12] of the same binder?
The MFI was 12.

What about the MFI [13] of the same binder?
The MFI was 10.4.

And the MFI [14]?
Its MFI is 15.4.
